Kd and IC50 data for 28 sequences are collected here from the Immune Epitope Database (IEDB).

Bounds are passed on as bounds.

As a reminder, the Kd is the equilibrium constant for the complex coming apart. By IC50 is commonly meant the concentration needed to halve the response being measured. Read a high IC50 as a need for much substance.

One assay addresses HLA-A*26:01. Nature of the assay: IEDB peptide-MHC binding, purified MHC/competitive/radioactivity; filed as Kd, often an IC50 or EC50 that approximates it; ≥ and ≤ were set here for values at or beyond the usual limits of such assays. The conditions noted are these: source organism: Dengue virus 3 Martinique/1243/1999.
The target in the next assay is HLA-B*35:01. The description is as above.
A further assay has as its target HLA-B*53:01. The assay is described as above.
The next assay addresses HLA-B*07:02. The description is as above.
For the next assay, the target named is HLA-B*18:01. The description is as above.
In a further assay the target is HLA-B*40:01. The description is as above.
The target of a further assay is HLA-B*40:02. The description is as above.
Another assay has as its target HLA-B*44:02. Described as above.
In the next assay the target is HLA-B*44:03. The description is as above.
Another assay deals with HLA-B*45:01. The assay is described as above.
For a further assay, the target named is HLA-A*02:01. Put plainly: IEDB peptide-MHC binding, purified MHC/competitive/fluorescence; ≥ and ≤ were set here for values at or beyond the usual limits of such assays.
The next assay concerns the target HLA-A*24:02. Described as above.
For a further assay, the target named is HLA-A*30:02. Nature of the assay: IEDB peptide-MHC binding, purified MHC/competitive/radioactivity; filed as Kd, often an IC50 or EC50 that approximates it; ≥ and ≤ were set here for values at or beyond the usual limits of such assays. The note with it: source organism: Dengue virus 1 Brazil/97-11/1997.
[1] abbreviates: source organism: Dengue virus 3 Martinique/1243/1999.
The mark [2] stands for this setting: source organism: Dengue virus 1 Brazil/97-11/1997.
Setting [3] is: source organism: Mammarenavirus machupoense.
The mark [4] stands for this setting: source organism: Sudan ebolavirus.
Setting [5] is: source organism: SARS coronavirus Tor2.
[6] abbreviates: source organism: Zaire ebolavirus.
[7] abbreviates: source organism: Dengue virus 2 Jamaica/1409/1983.
[8] abbreviates: source organism: Lymphocytic choriomeningitis virus (strain Armstrong).
Setting [9] is: source organism: Vaccinia virus.
Where [10] appears, read: source organism: Mammarenavirus juninense.
The mark [11] stands for this setting: source organism: Vaccinia virus Copenhagen.
The mark [12] stands for this setting: source organism: Vaccinia virus WR.

On to EPIEGKVVQY, for which the Kd with HLA-A*26:01 amounted to 2.73 µM; with HLA-B*35:01 (setting [1]) it was 0.491 µM; with HLA-B*53:01 (setting [1]) it was 5.03 µM.
For the sequence KPSGSASSM, the Kd with HLA-B*07:02 (setting [2]) is 0.00488 µM.
As for PENQEDPLVL, the Kd with HLA-B*18:01 (setting [3]) is at least 70.4 µM; with HLA-B*40:01 (setting [3]) it was at least 39.5 µM; in the assay with HLA-B*40:02 (setting [3]), at least 70.8 µM; with HLA-B*44:02 (setting [3]), at least 70.2 µM; with HLA-B*44:03 (setting [3]) it was at least 70.1 µM; with HLA-B*45:01 (setting [3]), at least 70 µM.
Turning to KEKAPDVGVL, the Kd was at least 70.4 µM with HLA-B*18:01 (setting [3]); 1.05 µM with HLA-B*40:01 (setting [3]); 0.0649 µM with HLA-B*40:02 (setting [3]); 2.41 µM with HLA-B*44:02 (setting [3]); at least 62.1 µM with HLA-B*44:03 (setting [3]); at least 30.9 µM in the assay with HLA-B*45:01 (setting [3]).
As to MPTVIEHLER, the figures for the Kd with HLA-B*35:01 (setting [1]) and with HLA-B*53:01 (setting [1]) were 0.871 µM and 7.05 µM, respectively.
TTELRTYTI: the IC50 with HLA-A*02:01 (setting [4]) is at least 94.5 µM; in the assay with HLA-A*24:02 (setting [4]), 0.925 µM.
Regarding MEVQSLAMST, the Kd was 0.969 µM with HLA-B*18:01 (setting [5]); 2.06 µM in the assay with HLA-B*40:01 (setting [5]); at least 20.1 µM with HLA-B*40:02 (setting [5]); 7.21 µM with HLA-B*44:02 (setting [5]); 0.951 µM with HLA-B*44:03 (setting [5]); 0.259 µM in the assay with HLA-B*45:01 (setting [5]).
For the sequence MELPTGVHA, the Kd with HLA-B*18:01 (setting [5]) is 18 µM; with HLA-B*40:01 (setting [5]) it was at least 24.9 µM; with HLA-B*40:02 (setting [5]), 2.74 µM; in the assay with HLA-B*44:02 (setting [5]) it was 7.8 µM; with HLA-B*44:03 (setting [5]), 13.8 µM; in the assay with HLA-B*45:01 (setting [5]), 0.0789 µM.
For the sequence FERDISNVPF, the Kd with HLA-B*18:01 (setting [5]) is 0.032 µM; in the assay with HLA-B*40:01 (setting [5]), 0.0203 µM; in the assay with HLA-B*40:02 (setting [5]), 1.95 µM; with HLA-B*44:02 (setting [5]), 0.578 µM; in the assay with HLA-B*44:03 (setting [5]) it was 0.629 µM; with HLA-B*45:01 (setting [5]) it was 6.4 µM.
Regarding KEGAFFLYD, the IC50 is at least 3840 µM with HLA-A*02:01 (setting [6]) and 46 µM in the assay with HLA-A*24:02 (setting [6]).
For SPIVDRKGKV, the Kd in the assay with HLA-B*07:02 (setting [7]) is 0.545 µM.
Take LEVKFNAPA: the Kd with HLA-B*18:01 (setting [5]) was 0.111 µM; in the assay with HLA-B*40:01 (setting [5]) it was 5.31 µM; in the assay with HLA-B*40:02 (setting [5]), 0.00933 µM; with HLA-B*44:02 (setting [5]) it was at least 21.3 µM; with HLA-B*44:03 (setting [5]), 6.01 µM; with HLA-B*45:01 (setting [5]), 0.00446 µM.
SPPEVERAVL: the dissociation constant Kd with HLA-B*07:02 (setting [2]) is 0.0197 µM.
Consider SLEEEYPPW, for which the figures for the IC50 in the assay with HLA-A*02:01 (setting [6]) and with HLA-A*24:02 (setting [6]) were at least 214 µM and at least 179 µM, respectively.
As to QEADNMITEM, the Kd with HLA-B*18:01 (setting [8]) worked out at 1.47 µM; with HLA-B*40:01 (setting [8]), 5.36 µM; with HLA-B*40:02 (setting [8]), 0.124 µM; in the assay with HLA-B*44:02 (setting [8]), 0.224 µM; in the assay with HLA-B*44:03 (setting [8]), 0.813 µM; with HLA-B*45:01 (setting [8]) it was 1.19 µM.
In the assay with HLA-A*02:01 (setting [4]), QSPPIREAV returned an IC50 of 38.3 µM.
As for MDGIQYGRSG, the Kd in the assay with HLA-B*18:01 (setting [5]) is at least 70.5 µM; with HLA-B*40:01 (setting [5]), at least 69.6 µM; in the assay with HLA-B*40:02 (setting [5]) it was at least 70.8 µM; in the assay with HLA-B*44:02 (setting [5]), at least 49.9 µM; with HLA-B*44:03 (setting [5]), at least 58.6 µM; with HLA-B*45:01 (setting [5]), 10.9 µM.
Turning to RLEEEINNQ, the IC50 with HLA-A*02:01 (setting [9]) was at least 195 µM; with HLA-A*24:02 (setting [9]), 32.6 µM.
As for SDQKFVDVI, the Kd with HLA-B*18:01 (setting [10]) was at least 26.3 µM; with HLA-B*40:01 (setting [10]) it was at least 70.7 µM; in the assay with HLA-B*40:02 (setting [10]), 4.43 µM; with HLA-B*44:02 (setting [10]), at least 25.4 µM; with HLA-B*44:03 (setting [10]), at least 78.1 µM; in the assay with HLA-B*45:01 (setting [10]), 16.7 µM.
Take TETKITFAL: the IC50 with HLA-A*02:01 (setting [11]) was at least 83.3 µM; with HLA-A*24:02 (setting [11]), 19 µM.
In the case of NEKVAGFAKF, the Kd was 1.56 µM with HLA-B*18:01 (setting [5]); at least 53.7 µM with HLA-B*40:01 (setting [5]); at least 70.8 µM with HLA-B*40:02 (setting [5]); 0.0379 µM with HLA-B*44:02 (setting [5]); 0.527 µM in the assay with HLA-B*44:03 (setting [5]); 18.8 µM with HLA-B*45:01 (setting [5]).
For IPATLFVWY, the values for the Kd in the assay with HLA-B*35:01 (setting [2]) and with HLA-B*53:01 (setting [2]) were 0.00339 µM and 0.01 µM, respectively.
For the sequence GPMPVTHSSA, in the assay with HLA-B*07:02 (setting [7]), the Kd came to 0.00721 µM.
In the case of YKVASEGFQY, the Kd was determined as 0.135 µM with HLA-A*30:02 and 3.92 µM with HLA-B*35:01 (setting [2]).
For ELSFEALSL, the values for the IC50 with HLA-A*02:01 (setting [4]) and in the assay with HLA-A*24:02 (setting [4]) were 23.9 µM and 39.5 µM, respectively.
For HALLATSIF, in the assay with HLA-B*35:01 (setting [2]), the Kd was 0.0168 µM.
Turning to LFTEQAFYT, the IC50 was 68.1 µM with HLA-A*02:01 (setting [12]) and 55 µM with HLA-A*24:02 (setting [12]).
Turning to TPHSGEEHAV, the Kd with HLA-B*07:02 (setting [7]) came out at 0.162 µM.
